Results on three molecules are retold here after publication PMC11742315, “Identification of a staphylococcal dipeptidase involved in the production of human body odor” (The Journal of Biological Chemistry, 2024).

Holding throughout (assay): purified protein
For series [1], the system named is CCCC(C)(CCO)SC[C@H](N)C(=O)NCC(=O)O. The note with it: Mn2+-bound enzyme; 0.1 M Tris-HCl (pH 80 [sic]); coupled with ShPatB.
For a further series, the system named is N[C@@H](CS)C(=O)NCC(=O)O. Conditions: Mn2+-bound enzyme, 50 mM potassium phosphate, 200 mM NaCl, 37 °C.
Substrate in the series “purified protein”: CCCC(C)(CCO)SC[C@H](N)C(=O)NCC(=O)O
Conditions: 0.1 M Tris-HCl (pH 80 [sic]), coupled with ShPatB.

By Km is commonly meant the substrate concentration at which the rate is half of its maximum. A word on the kcat: it is the number of substrate molecules converted per active site and unit of time at saturation. Broadly, the kcat/Km is the second-order rate constant that governs catalysis at low substrate concentration. Regarding ShPepV (Staphylococcus hominis), in series [1], the Km was determined as 1290 ± 40 µM, the kcat was 3.41 ± 0.07 s⁻¹ and the kcat/Km is 2640 ± 100 M⁻¹ s⁻¹. Also, in the series on N[C@@H](CS)C(=O)NCC(=O)O, the Km was determined as 2190 ± 220 µM, the kcat is 405 ± 23.6 s⁻¹ and the kcat/Km came out at 186000 ± 21800 M⁻¹ s⁻¹.

B1: SaPepV (Staphylococcus aureus subsp. aureus USA300) (protein)
chain: MWKEKVQQYEDQIINDLKGLLAIESVRDDAKASEDAPVGPGPRKALDYMYEIAHRDGFTTHDVDHIAGRIEAGKGNDVLGILCHVDVVPAGDGWDSNPFEPVVTEDAIIARGTLDDKGPTIAAYYAIKILEDMNVDWKKRIHMIIGTDEESDWKCTDRYFKTEEMPTLGFAPDAEFPCIHGEKGITTFDLVQNKLTEDQDEPDYELITFKSGERYNMVPDHAEARVLVKENMTDVIQDFEYFLEQNHLQGDSTVDSGILVLTVEGKAVHGMDPSIGVNAGLYLLKFLASLNLDNNAQAFVAFSNRYLFNSDFGEKMGMKFHTDVMGDVTTNIGVITYDNENAGLFGINLRYPEGFEFEKAMDRFANEIQQYGFEVKLGKVQPPHYVDKNDPFVQKLVTAYRNQTNDMTEPYTIGGGTYARNLDKGVAFGAMFSDSEDLMHQKNEYITKKQLFNATSIYLEAIYSLCVEE
Take B1: the Km in the series “purified protein” (Mn2+-bound enzyme) came out at 3340 ± 340 µM.

B2: CgTpdA (Corynebacterium glaucum) (protein)
chain: MSNDNAVNSAVTSTDFTFSPNRERIFQELAELISHYSPHSMPEHAATHEEAAKWVTAKLEELGLDVTRHPTVDDADTIIGVKEPVGDAPTVLLYSHYDVVPAQNPAVWTNDPLELDERGGRWYGRGAADCKGNVIMHLAALRMVQENGGTDLGIKVVVEGSEELGGEDGLGKLIDANPELFTADVIFIGDGGNVAVGIPTLTTHLRGGAQLRIKVDTLEGPVHSGGWGGAAPDAAHALIRISDSFFDEHGRTTIEGVDTTAKWEGDPYDRETFRKDARVLDGVQLLGTVDDEPADMVWARPAITVIGFTSVPVKDATNIVNSTAEAQFNLRVPAPQSAAEVAKKVEEQIYARAPWGAKVEVSVTGVNEPFSTDPNGPAVQHFGKCMQDAYGAERLTVVGTGGSIPLTVTLQKHFPDAEFALYGVADPAANIHGIDESVDPTEIEHVAIAEATFLLTYGK
For B2, the Km in “purified protein” is 480 ± 30 µM.
